Reference: US11278600B2, “Human alpha-galactosidase variants” (Codexis, Inc., priority 2014, dated 2022)
Where a chain is given by its changes, count along the chain named.

B1: 388 (protein)
chain: LDNGLARTPTMGWLHWERFMCNLDCQEEPDSCISEKLFMEMAERMVSEGWKDAGYEYLCIDDCWMAPQRDSEGRLQADPQRFPHGIRQLANYLHSKGLKLGIYADVGNKTCAGFPGSFGYYDIDAQTFADWGVDLLKFDGCYCDSLENLADGYKHMSLALNRTGRSIVYSCEWPLYMWPFQKPNYTEIRQYCNHWRNFADIDDSWKSIKSILDWTSRNQERIVDVAGPGGWNDPDMLVIGNFGLSWDQQVTQMALWAIMAAPLFMSNDLRHISPQAKALLQDKDVIAINQDPLGKQGYQLRKGDNFEVWERPLSGDAWAVAIINRQEIGGPRSYTIPVASLGKGVACNPACFITQLLPVKRQLGFYNWTSRLKSHINPTGTVLLQLENTMQMSLKDLL
modifications: Synthetic Polypeptide sequence of Variant No. 388 of mature Human GLA
B2: 550 (protein)
chain: B1 chain with Y92H, L93V, K206A, K295S
modifications: Synthetic Polypeptide sequence of Variant No. 550 of mature Human GLA
B3: 552 (protein)
chain: B1 chain with Y92H, L93V, K206A, A317D
modifications: Synthetic Polypeptide sequence of Variant No. 552 of mature Human GLA
B4: 549 (protein)
chain: B1 chain with Y92H, L93V, K206A, K295Q
modifications: Synthetic Polypeptide sequence of Variant No. 549 of mature Human GLA
B5: 390 (protein)
chain: B1 chain with L93Q
modifications: Synthetic Polypeptide sequence of Variant No. 390 of mature Human GLA
B6: 547 (protein)
chain: B1 chain with Y92H, L93V, K206A, K295L
modifications: Synthetic Polypeptide sequence of Variant No. 547 of mature Human GLA
B7: 551 (protein)
chain: B1 chain with Y92H, L93V, K206A, K295T
modifications: Synthetic Polypeptide sequence of Variant No. 551 of mature Human GLA
B8: 553 (protein)
chain: B1 chain with Y92H, L93V, K206A, A317Q
modifications: Synthetic Polypeptide sequence of Variant No. 553 of mature Human GLA
B9: 548 (protein)
chain: B1 chain with Y92H, L93V, K206A, K295N
modifications: Synthetic Polypeptide sequence of Variant No. 548 of mature Human GLA
B10: 389 (protein)
chain: B1 chain with L93S
modifications: Synthetic Polypeptide sequence of Variant No. 389 of mature Human GLA
B11: 517 (protein)
chain: B1 chain with D2Q, Y92H, L93V, K206A
modifications: Synthetic Polypeptide sequence of Variant No. 517 of mature Human GLA

How the values were obtained:
Format in all cases: biochemical
[1] = HTP-analysis of supernatants pretreated with acid (MUGal hydrolysis); conditions: challenge at pH 3.7
How it was run: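 GLA variants were secreted from INVSc1 yeast grown 66-84 h at 30° C. in SD-Ura with 2% glucose; supernatants were mixed with McIlvaine buffer pH 3.3-4.3 and held at 37° C. for 1-3 h. Residual activity on MUGal at pH 4.8 was then measured by fluorescence.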

[2] = HTP-analysis of supernatants pretreated with base (MUGal hydrolysis); conditions: for Relative Activity of GLA Variants After Challenge at pH 9.65: activity of the variant/activity of Rd4BB (SEQ ID NO: 15); for Relative Activity of GLA Variants After Challenge at pH 9.7: activity of the variant/activity of Rd3BB (SEQ ID NO: 13)
How it was run: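 GLA variants were secreted by transformed INVSc1 yeast grown 66-84 h at 30° C. Supernatants were exposed to neutral-to-basic buffers (pH 7.0-9.7) at 37° C for 1-18 h, then assayed with MUGal in acidic citrate/McIlvaine buffer, with fluorescence read after quenching.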

[3] = HTP-analysis of yeast culture supernatants, no challenge (MUGal hydrolysis)
How it was run: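 GLA variants were expressed in INVSc1 yeast grown in SD-Ura broth with glucose at 30° C., and culture supernatants were collected after 66-84 h. Supernatant was mixed with McIlvaine buffer pH 4.8 and MUGal (2 mM stock) in 50 mM citrate, 200 mM KCl, pH 4.6, incubated at 37° C. for 30-180 minutes, then quenched with sodium carbonate.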

[4] = activity of the variant/activity of Rd4BB (SEQ ID NO: 15)
[5] = activity of the variant/activity of Rd3BB (SEQ ID NO: 13)

Row | Molecule | Relative Activity of GLA Variants After Challenge at pH 3.7 [1, 4] | Relative Activity of GLA Variants After Challenge at pH 9.65 [2] | Relative Activity of GLA Variants After No Challenge (NC) [3, 4] | Relative Activity of GLA Variants After Challenge at pH 3.7 [1, 5] | Relative Activity of GLA Variants After Challenge at pH 9.7 [2] | Relative Activity of GLA Variants After No Challenge (NC) [3, 5]
1 | B1 | − (<0.5 relative activity over Rd4BB (SEQ ID NO: 15)) | + (0.5 to 1.5 relative activity over Rd4BB (SEQ ID NO: 15)) | + (0.5 to 1.5 relative activity over Rd4BB (SEQ ID NO: 15)) |  |  | 
2 | B2 |  |  |  | + (+ = 1.5 to 5 relative activity over Rd3BB (SEQ ID NO: 13)) | ++ (++ = >5 to 10 relative activity over Rd3BB (SEQ ID NO: 13)) | + (+ = 1.5 to 5 relative activity over Rd3BB (SEQ ID NO: 13))
3 | B3 |  |  |  | + (+ = 1.5 to 5 relative activity over Rd3BB (SEQ ID NO: 13)) | ++ (++ = >5 to 10 relative activity over Rd3BB (SEQ ID NO: 13)) | + (+ = 1.5 to 5 relative activity over Rd3BB (SEQ ID NO: 13))
4 | B4 |  |  |  | ++ (++ = >5 to 10 relative activity over Rd3BB (SEQ ID NO: 13)) | ++ (++ = >5 to 10 relative activity over Rd3BB (SEQ ID NO: 13)) | + (+ = 1.5 to 5 relative activity over Rd3BB (SEQ ID NO: 13))
5 | B5 | + (0.5 to 1.5 relative activity over Rd4BB (SEQ ID NO: 15)) | − (<0.5 relative activity over Rd4BB (SEQ ID NO: 15)) | + (0.5 to 1.5 relative activity over Rd4BB (SEQ ID NO: 15)) |  |  | 
6 | B6 |  |  |  | + (+ = 1.5 to 5 relative activity over Rd3BB (SEQ ID NO: 13)) | ++ (++ = >5 to 10 relative activity over Rd3BB (SEQ ID NO: 13)) | + (+ = 1.5 to 5 relative activity over Rd3BB (SEQ ID NO: 13))
7 | B7 |  |  |  | + (+ = 1.5 to 5 relative activity over Rd3BB (SEQ ID NO: 13)) | ++ (++ = >5 to 10 relative activity over Rd3BB (SEQ ID NO: 13)) | + (+ = 1.5 to 5 relative activity over Rd3BB (SEQ ID NO: 13))
8 | B8 |  |  |  | + (+ = 1.5 to 5 relative activity over Rd3BB (SEQ ID NO: 13)) | ++ (++ = >5 to 10 relative activity over Rd3BB (SEQ ID NO: 13)) | + (+ = 1.5 to 5 relative activity over Rd3BB (SEQ ID NO: 13))
9 | B9 |  |  |  | +++ (+++ = >10 relative activity over Rd3BB (SEQ ID NO: 13)) | ++ (++ = >5 to 10 relative activity over Rd3BB (SEQ ID NO: 13)) | + (+ = 1.5 to 5 relative activity over Rd3BB (SEQ ID NO: 13))
10 | B10 | + (0.5 to 1.5 relative activity over Rd4BB (SEQ ID NO: 15)) | − (<0.5 relative activity over Rd4BB (SEQ ID NO: 15)) | + (0.5 to 1.5 relative activity over Rd4BB (SEQ ID NO: 15)) |  |  | 
11 | B11 |  |  |  | + (+ = 1.5 to 5 relative activity over Rd3BB (SEQ ID NO: 13)) | + (+ = 1.5 to 5 relative activity over Rd3BB (SEQ ID NO: 13)) | + (+ = 1.5 to 5 relative activity over Rd3BB (SEQ ID NO: 13))
